Data from US20070178093A1.

Key:
[1] = molecular target: human glucocorticoid-induced tumor necrosis factor family-related receptor (TEASR) (human) (UniProt Q9Y5U5); test: cell-based or functional assay
[2] = molecular target: fusion protein comprising the extracellular domain of hTEASR and the cytoplasmic region of Fas, expressed on Ba/F3 cells (human) (UniProt Q9Y5U5); test: cell-based or functional assay

Substance: hTEASR-L-Ig fusion protein (from UniProt Q9UNG2 49-177) (Fc fusion)
- proliferation of CD4+ T cells in the presence of CD32/CD58/CD80 feeder L cells [1]: 2.5 fold
- proliferation of CD8+ T cells in the presence of CD32 feeder L cells [1]: 5.6 fold

Substance: human TEASR ligand (TEASR-L) (from UniProt Q9UNG2 1-177)
- apoptotic cell death, 51Cr release from transfected Ba/F3 cells (in the presence of control IgG1) [2]: 23 % release
